Results reported in FireProtDB (doi:10.1021/bi5005975).
Numbering of substitutions follows the chain as printed. Where “and” joins values, the source holds several entries; their conditions need not be identical. Equal entries are not always repeated.

B1: wild type, Q9NAV7 (protein)
chain: MGFKQDIATLRGDLRTYAQDIFLAFLNKYPDEKRNFKNYVGKSDQELKSMAKFGDHTEKVFNLMMEVADRATDCVPLASDASTLVQMKQHSGLTTGNFEKLFVALVEYMRASGQSFDSQSWDRFGKNLVSALSSAGMK
B2: wild type, Q9NAV8 (protein)
chain: B1 chain with L10I, K33R, N35Y, S82N, G92S

Details: Amphitrite ornata; pH 7; 20 °C; GdnHCl; UV?visible spectrophotometer; potassium phosphate 100 mM; transition: 2; reversible: yes; whole UniProt chain shown

Row | Protein | denaturant midpoint (higher = more stable) [M] | unfolding free energy [kcal/mol]
1 | B1 | 1.09 | 2.21

Same assay, conditions: Amphitrite ornata; pH 7; 20 °C; Urea; UV?visible spectrophotometer; potassium phosphate 100 mM; transition: 2; reversible: yes; whole UniProt chain shown

Row | Protein | denaturant midpoint (higher = more stable) [M] | unfolding free energy [kcal/mol]
2 | B1 | 4.12 | 2.42

Same assay, conditions: Amphitrite ornata; pH 7; Thermal; DSC; degassed buffer (potassium phosphate) 100 mM; transition: 2; reversible: yes; whole UniProt chain shown

Row | Protein | Tm | unfolding enthalpy (calorimetric) | unfolding enthalpy (van 't Hoff)
3 | B1 | 47.7 °C and 48.6 °C | 165 kcal/mol and 166 kcal/mol | 336 kcal/mol and 396 kcal/mol
4 | B2 | 50.5 °C and 49.8 °C | 183 kcal/mol and 163 kcal/mol | 384 kcal/mol and 412 kcal/mol

Same assay, conditions: Amphitrite ornata; pH 7; Thermal; UV?visible spectrophotometer; potassium phosphate 100 mM; transition: 2; reversible: yes; whole UniProt chain shown

Row | Protein | Tm [°C]
5 | B1 | 46
